Assay results published in doi:10.1101/154823 (bioRxiv, 2017).

Molecular target: T1, GDF8 growth factor dimer (human, UniProt O14793 267-375, disulfide-linked dimer)
T1 sequence (looked up): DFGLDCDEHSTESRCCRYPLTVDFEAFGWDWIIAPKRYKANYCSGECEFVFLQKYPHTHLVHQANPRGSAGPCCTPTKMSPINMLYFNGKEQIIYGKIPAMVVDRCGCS
Test: HDX-MS

binding result: binds
B1: N-prodomain fragment of GDF8 (N-terminal 15 kDa TLD-cleaved prodomain fragment) (domain or fragment, human, UniProt O14793 24-98, looked up)
chain: NENSEQKENVEKEGLCNACTWRQNTKSSRIEAIKIQILSKLRLETAPNISKDVIRQLLPKAPPLRELIDQYDVQR
modifications: predicted N-linked glycan attachment site (printed as Asn-71 in the text, Asn48 in Figure 1A)
